The source of these data is patent US20140186363A1 (UNIVERSITY OF ZURICH, published 2014).

One assay deals with T1, MAGEA4 (UniProt P43358 1-317, limits assumed).
T1 construct: also called recombinant MAGEA4-protein; CT1.4
T1 sequence (looked up): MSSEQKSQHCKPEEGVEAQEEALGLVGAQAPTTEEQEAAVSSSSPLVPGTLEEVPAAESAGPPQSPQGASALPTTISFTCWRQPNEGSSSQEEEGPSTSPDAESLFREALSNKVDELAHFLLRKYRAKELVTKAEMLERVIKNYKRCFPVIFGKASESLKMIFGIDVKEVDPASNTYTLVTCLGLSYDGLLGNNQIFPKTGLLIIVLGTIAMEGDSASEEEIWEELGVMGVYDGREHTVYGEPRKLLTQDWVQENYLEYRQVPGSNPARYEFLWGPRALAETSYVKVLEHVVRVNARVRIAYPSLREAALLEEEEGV
Description: Western blot of recombinant protein, anti-human IgG-HRP. On the procedure: Recombinant MAGEA3- and recombinant MAGEA4-protein were separated in SDS-PAGE and blotted onto membranes. Membranes were incubated with human antibodies 122G3 or 32H2. Binding of human antibodies to proteins on the membrane was evaluated using an HRP-labeled goat anti human IgG (Jackson Immunoresearch, Milan Analytica AG, Rheinfelden, Switzerland). The results are depicted in FIG. 3.

The target of the next assay is T2, MAGEA3 peptide no 15.
T2 construct: also called MAGEA3 aa 141-160
T2 peptide: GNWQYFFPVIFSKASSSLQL
As to the kind of experiment: peptide ELISA (coated 20mer) [Figure 1]. As for the experimental part: (§1) 20mer peptides spanning the entire MAGEA3 protein with 10 aa overlaps shared by each adjacent peptide (Peptides&Elephants, Nuthetal, Germany) were used to coat Maxisorp ELISA plates (Nunc, Rochester, N.Y.). As control a 20mer peptide representing amino acids 40-21 from the NY-ESO-1 protein was used (rev). The numbering of amino acids of MAGEA3 is based on SEQ ID No:41.
(§2) Human recombinant antibody was used at a concentration of 1 μg/ml. Bound human antibody was detected using horseradish peroxidase-conjugated goat anti-human IgG Fc-gamma specific antibodies (Jackson ImmunoResearch, Europe Ltd., Cambridgeshire, UK).
(In general: ELISA stands for enzyme-linked immunosorbent assay.)

The target of a further assay is T3, MAGEA3 peptide no 29.
T3 construct: also called MAGEA3 aa 281-300
T3 peptide: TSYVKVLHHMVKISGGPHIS
Description: peptide ELISA (coated 20mer) [Figure 1]. On the procedure:
as §1, §2

The target in another assay is T4, MAGEA3 peptide no 10.
T4 construct: also called MAGEA3 aa 91-110
T4 peptide: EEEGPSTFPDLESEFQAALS
Description: peptide ELISA (coated 20mer) [Figure 1]. As for the experimental part:
as §1, §2

For a further assay, the target named is T5, MAGEA3 peptide no 25.
T5 construct: also called MAGEA3 aa 241-260
T5 peptide: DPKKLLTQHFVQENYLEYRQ
As to the kind of experiment: peptide ELISA (coated 20mer) [Figure 1]. On the procedure: as §1, §2

A further assay has as its target T6, MAGEA3 peptide no 31.
T6 construct: also called MAGEA3 aa 295-314
T6 peptide: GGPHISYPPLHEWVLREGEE
Description: peptide ELISA (coated 20mer) [Figure 1]. On the procedure:
as §1, §2

In a further assay the target is T7, MAGEA3 peptide no 19.
T7 construct: also called MAGEA3 aa 181-200
T7 peptide: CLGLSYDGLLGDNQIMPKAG
Description: peptide ELISA (coated 20mer) [Figure 1]. As for the experimental part: as §1, §2

In the next assay the target is T8, MAGEA3 peptide no 13.
T8 construct: also called MAGEA3 aa 121-140
T8 peptide: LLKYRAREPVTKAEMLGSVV
As to the kind of experiment: peptide ELISA (coated 20mer) [Figure 1]. On the procedure: as §1, §2

The target in another assay is T9, MAGEA3 peptide no 23.
T9 construct: also called MAGEA3 aa 221-240
T9 peptide: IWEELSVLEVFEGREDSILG
Description: peptide ELISA (coated 20mer) [Figure 1]. As for the experimental part: as §1, §2

The target of another assay is T10, MAGEA3 peptide no 4.
T10 construct: also called MAGEA3 aa 31-50
T10 peptide: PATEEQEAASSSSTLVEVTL
As to the kind of experiment: peptide ELISA (coated 20mer) [Figure 1]. On the procedure:
as §1, §2

Another assay addresses T11, MAGEA3 peptide no 16.
T11 construct: also called MAGEA3 aa 151-170
T11 peptide: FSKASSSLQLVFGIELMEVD
Description: peptide ELISA (coated 20mer) [Figure 1]. On the procedure:
as §1, §2

The next assay deals with T12, MAGEA3 peptide no 14.
T12 construct: also called MAGEA3 aa 131-150
T12 peptide: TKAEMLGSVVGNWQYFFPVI
As to the kind of experiment: peptide ELISA (coated 20mer) [Figure 1]. As for the experimental part:
as §1, §2

The next assay deals with T13, MAGEA3 peptide no 2.
T13 construct: also called MAGEA3 aa 11-30
T13 peptide: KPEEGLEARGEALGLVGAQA
As to the kind of experiment: peptide ELISA (coated 20mer) [Figure 1]. As for the experimental part: as §1, §2

Another assay concerns the target T14, MAGEA3 peptide no 22.
T14 construct: also called MAGEA3 aa 211-230
T14 peptide: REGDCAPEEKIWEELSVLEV
As to the kind of experiment: peptide ELISA (coated 20mer) [Figure 1]. On the procedure:
as §1, §2

The target in a further assay is T15, MAGEA3 peptide no 30.
T15 construct: also called MAGEA3 aa 291-310
T15 peptide: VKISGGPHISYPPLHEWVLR
Description: peptide ELISA (coated 20mer) [Figure 1]. As for the experimental part:
as §1, §2

The target of another assay is T16, MAGEA3 peptide no 24.
T16 construct: also called MAGEA3 aa 231-250
T16 peptide: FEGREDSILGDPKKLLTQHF
Description: peptide ELISA (coated 20mer) [Figure 1]. As for the experimental part: as §1, §2

The target in another assay is T17, MAGEA3 peptide no 27.
T17 construct: also called MAGEA3 aa 261-280
T17 peptide: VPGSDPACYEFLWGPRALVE
As to the kind of experiment: peptide ELISA (coated 20mer) [Figure 1]. On the procedure: as §1, §2

The target in another assay is T18, MAGEA3 peptide no 3.
T18 construct: also called MAGEA3 aa 21-40
T18 peptide: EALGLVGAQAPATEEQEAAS
As to the kind of experiment: peptide ELISA (coated 20mer) [Figure 1]. On the procedure: as §1, §2

For another assay, the target named is T19, MAGEA3 peptide no 18.
T19 construct: also called MAGEA3 aa 171-190
T19 peptide: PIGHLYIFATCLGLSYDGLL
As to the kind of experiment: peptide ELISA (coated 20mer) [Figure 1]. As for the experimental part:
as §1, §2

In a further assay the target is T20, MAGEA3 peptide no 28.
T20 construct: also called MAGEA3 aa 271-290
T20 peptide: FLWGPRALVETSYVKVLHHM
As to the kind of experiment: peptide ELISA (coated 20mer) [Figure 1]. As for the experimental part: as §1, §2

Another assay has as its target T21, MAGEA3 peptide no 12.
T21 construct: also called MAGEA3 aa 111-130
T21 peptide: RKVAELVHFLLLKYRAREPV
Description: peptide ELISA (coated 20mer) [Figure 1]. As for the experimental part:
as §1, §2

A further assay concerns the target T22, MAGEA3 peptide no 17.
T22 construct: also called MAGEA3 aa 161-180
T22 peptide: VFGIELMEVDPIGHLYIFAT
As to the kind of experiment: peptide ELISA (coated 20mer) [Figure 1]. On the procedure: as §1, §2

B1: 34G9 (antibody, V domains shown)
VH: EVQLEESGGDLVQPGGSLRLSCAASGFTFSHYWMHWVRQAPGKGLVWVSRINSDGSSTSYADSVKGRFTISRDNAKNTLYLQMNSLRAEDTAVYYCARIGSDGYNYDFWGQGTLVTVSS
VL: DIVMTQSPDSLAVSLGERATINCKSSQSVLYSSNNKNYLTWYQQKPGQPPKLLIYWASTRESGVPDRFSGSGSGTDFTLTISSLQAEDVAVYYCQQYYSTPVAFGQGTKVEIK
notes: Patient-derived human antibody made recombinantly; also called human monoclonal antibody 34G9
As for B1, the binding result in the assay with MAGEA4 is on record as “no binding”; in the assay with MAGEA3 peptide no 15 it was “no binding (tested: 1 µg/ml)”; with MAGEA3 peptide no 29 it was “no binding (tested: 1 µg/ml)”; with MAGEA3 peptide no 10 it was “no binding (tested: 1 µg/ml)”; in the assay with MAGEA3 peptide no 25, “no binding (tested: 1 µg/ml)”; with MAGEA3 peptide no 31 it was “no binding (tested: 1 µg/ml)”. For the same molecule, the binding result with MAGEA3 peptide no 19, with MAGEA3 peptide no 13, with MAGEA3 peptide no 23, in the assay with MAGEA3 peptide no 4, with MAGEA3 peptide no 16 and in the assay with MAGEA3 peptide no 14 was “no binding (tested: 1 µg/ml)” each time. Besides, the binding result in the assay with MAGEA3 peptide no 2, with MAGEA3 peptide no 22, with MAGEA3 peptide no 30, with MAGEA3 peptide no 24, with MAGEA3 peptide no 27 and with MAGEA3 peptide no 3 was “no binding (tested: 1 µg/ml)” throughout. Besides, the binding result with MAGEA3 peptide no 18, in the assay with MAGEA3 peptide no 28, in the assay with MAGEA3 peptide no 12 and with MAGEA3 peptide no 17 was “no binding (tested: 1 µg/ml)” in each case.

B2: 32H2 (antibody, V domains shown)
VH: QVQLVESGGGVVQPGRSLRLSCAASGFTFSSNAMHWVRQAPGKGLEWVAVISHDGSNKYYADSVKGRFTISRDNSKNTLYLQMNSLRAEDTAVYYCARDGSGSYFNLDYWGQGTLVTVSS
VL: QSALTQPASVSGSPGQSITISCTGTSSDVGGYNYVSWYQQHPGKAPKLMIYEVSNRPSGVSNRFSGSKSGNTASLTISGLQAEDEADYYCSSYTSSSTLVFGTGTKVTVL
notes: Patient-derived human antibody made recombinantly; also called human monoclonal antibody 32H2
B2: the binding result in the assay with MAGEA4 was “no binding”.

B3: 102G10 (antibody, V domains shown)
VH: EVQLVESGGGLVKPGGSLRLSCAASGFTFSGNSMNWVRQAPGKGLEWVSSISSSSGYIYYADSVKGRFTVSRDNAKNSLYLQMNSLRAEDTAVYYCATWPVTTARVGYWGQGTLVTVSS
VL: QSVLTQPPSASGTPGQRVTISCSGSSSNIGSNYVYWHQQLPGTAPKLLIYRHDQRPSGVPDRFSGSKSGTSASLAISGLRSEDEADYYCAAWDDSLSAWVFGGGTKLTVL
notes: Patient-derived human antibody made recombinantly; also called human monoclonal antibody 102G10
In the case of B3, the binding result with MAGEA4 is on record as “no binding”; with MAGEA3 peptide no 15 it was “no binding (tested: 1 µg/ml)”; with MAGEA3 peptide no 29 it was “no binding (tested: 1 µg/ml)”; with MAGEA3 peptide no 10, “no binding (tested: 1 µg/ml)”; with MAGEA3 peptide no 25, “no binding (tested: 1 µg/ml)”; in the assay with MAGEA3 peptide no 31, “no binding (tested: 1 µg/ml)”. Further, the binding result in the assay with MAGEA3 peptide no 19, with MAGEA3 peptide no 13, with MAGEA3 peptide no 23, with MAGEA3 peptide no 4, with MAGEA3 peptide no 16 and with MAGEA3 peptide no 14 was “no binding (tested: 1 µg/ml)” throughout. The binding result with MAGEA3 peptide no 2, in the assay with MAGEA3 peptide no 22, with MAGEA3 peptide no 30, with MAGEA3 peptide no 24, in the assay with MAGEA3 peptide no 27 and in the assay with MAGEA3 peptide no 3 was “no binding (tested: 1 µg/ml)” throughout. Further, the binding result with MAGEA3 peptide no 18, with MAGEA3 peptide no 28, in the assay with MAGEA3 peptide no 12 and in the assay with MAGEA3 peptide no 17 was “no binding (tested: 1 µg/ml)” in each case.
